Measurements from patent US7432365B1, “DNA molecules encoding beta clamp proteins of gram positive bacteria” (priority 1998, dated 2008).
Values joined by “and” are separate entries in the source; they are usually repeats but may differ in a detail not shown here. Identical values can stand only once.

Key:
[1] = biological target: Escherichia coli DNA polymerase III core (Escherichia coli) (UniProt P10443); assay: cell-based or functional assay
Pol II = details: 0.15 M KCl; cited from earlier work
Pol I = Pol I (Bacillus subtilis, UniProt O34996); details: 0.15 M KCl; cited from earlier work
Sequence of Pol I (O34996 whole entry): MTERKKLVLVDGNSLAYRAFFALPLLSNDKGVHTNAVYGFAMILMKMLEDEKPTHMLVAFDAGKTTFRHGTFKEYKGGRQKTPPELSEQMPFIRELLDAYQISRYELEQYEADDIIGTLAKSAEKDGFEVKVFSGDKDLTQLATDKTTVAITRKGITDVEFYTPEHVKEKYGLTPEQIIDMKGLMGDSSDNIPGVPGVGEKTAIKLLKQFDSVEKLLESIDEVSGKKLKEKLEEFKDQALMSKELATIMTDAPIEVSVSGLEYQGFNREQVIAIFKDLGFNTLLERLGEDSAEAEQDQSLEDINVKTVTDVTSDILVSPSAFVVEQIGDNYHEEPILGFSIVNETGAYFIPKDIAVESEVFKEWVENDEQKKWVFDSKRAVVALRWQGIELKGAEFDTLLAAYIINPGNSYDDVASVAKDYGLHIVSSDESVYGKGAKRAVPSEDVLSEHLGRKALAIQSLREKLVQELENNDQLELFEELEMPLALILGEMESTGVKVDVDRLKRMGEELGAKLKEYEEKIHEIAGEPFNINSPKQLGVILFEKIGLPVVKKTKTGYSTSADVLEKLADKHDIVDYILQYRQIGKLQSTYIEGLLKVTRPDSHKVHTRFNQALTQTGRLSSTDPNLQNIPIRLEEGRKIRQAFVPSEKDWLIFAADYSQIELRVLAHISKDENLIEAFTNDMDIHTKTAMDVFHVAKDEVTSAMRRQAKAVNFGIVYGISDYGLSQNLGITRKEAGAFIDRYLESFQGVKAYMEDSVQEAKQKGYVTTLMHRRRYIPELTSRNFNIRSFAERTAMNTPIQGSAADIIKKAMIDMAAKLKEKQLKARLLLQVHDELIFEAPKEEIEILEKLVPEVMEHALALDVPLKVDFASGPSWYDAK

Pol III-L = Pol III-L (Bacillus subtilis, UniProt P13267); details: Pol III-L, 0.15 M KCl; cited from earlier work
[2] = test system: singly primed M13mp18 ssDNA; assay: Time course of primer extension on singly primed M13mp18 ssDNA, DnaE polymerase; format: biochemical; details: saturating concentration of DnaE
Experimental: The S. pyogenes DnaE (α-small) polymerase is more homologous to E. coli a than S. pyogenes PolC. Thus, it seems reasonable to expect that the DnaE polymerase may also function with the β clamp (FIGS. 21A-B). To test DnaE for function with τδδ′ and β, replication reactions contained 70 ng (25 fmol) of 30-mer singly primed M13 mp18 ssDNA, 0.82 μg of S. pyogenes SSB, and 3.3 ng-300 ng of DnaE (25 fmol −2.3 pmol) in 23.5 μl of 20 mM Tris-HCl (pH 7.5), 4% glycerol, 0.1 mM EDTA, 5 mM dithiothreitol (DTT), 40 μg/ml BSA, 2 mM ATP, 8 mM MgCl2, and 60 μM each of dGTP and dCTP. When present, reactions included 43.3 ng of β and 10 ng of τδδ′. Reactions were preincubated for 3 min at 37° C., and then NaCl was added to 40 mM followed by another 2 min at 37° C. DNA synthesis was initiated upon addition of 1.5 μl of 1.5 mM dATP, 0.5 mM [α^32P]-dTTP (specific activity 2,000-4,000 cpm/pmol). Aliquots of 25 μl were removed at the indicated times and quenched with an equal volume (25 μl) of 1% SDS, 40 mM EDTA. One-half of the quenched reaction was analyzed for total deoxynucleotide incorporation using DE81 filter paper and the other half was analyzed on a 0.8% neutral agarose gel. The effect of TMAU was also examined, in which 100 μM TMAU in DMSO (2% DMSO final concentration) was present. In this case, replication was allowed to proceed for 1 min before being quenched with […] of 1% SDS, 40 mM EDTA. […]

[3] = biological target: Staphylococcus aureus Pol III-L (α-large, polC gene product) (Staphylococcus aureus) (UniProt P0C1P9); assay: cell-based or functional assay
Sequence of Staphylococcus aureus Pol III-L (α-large, polC gene product) (Staphylococcus aureus) (P0C1P9 whole entry): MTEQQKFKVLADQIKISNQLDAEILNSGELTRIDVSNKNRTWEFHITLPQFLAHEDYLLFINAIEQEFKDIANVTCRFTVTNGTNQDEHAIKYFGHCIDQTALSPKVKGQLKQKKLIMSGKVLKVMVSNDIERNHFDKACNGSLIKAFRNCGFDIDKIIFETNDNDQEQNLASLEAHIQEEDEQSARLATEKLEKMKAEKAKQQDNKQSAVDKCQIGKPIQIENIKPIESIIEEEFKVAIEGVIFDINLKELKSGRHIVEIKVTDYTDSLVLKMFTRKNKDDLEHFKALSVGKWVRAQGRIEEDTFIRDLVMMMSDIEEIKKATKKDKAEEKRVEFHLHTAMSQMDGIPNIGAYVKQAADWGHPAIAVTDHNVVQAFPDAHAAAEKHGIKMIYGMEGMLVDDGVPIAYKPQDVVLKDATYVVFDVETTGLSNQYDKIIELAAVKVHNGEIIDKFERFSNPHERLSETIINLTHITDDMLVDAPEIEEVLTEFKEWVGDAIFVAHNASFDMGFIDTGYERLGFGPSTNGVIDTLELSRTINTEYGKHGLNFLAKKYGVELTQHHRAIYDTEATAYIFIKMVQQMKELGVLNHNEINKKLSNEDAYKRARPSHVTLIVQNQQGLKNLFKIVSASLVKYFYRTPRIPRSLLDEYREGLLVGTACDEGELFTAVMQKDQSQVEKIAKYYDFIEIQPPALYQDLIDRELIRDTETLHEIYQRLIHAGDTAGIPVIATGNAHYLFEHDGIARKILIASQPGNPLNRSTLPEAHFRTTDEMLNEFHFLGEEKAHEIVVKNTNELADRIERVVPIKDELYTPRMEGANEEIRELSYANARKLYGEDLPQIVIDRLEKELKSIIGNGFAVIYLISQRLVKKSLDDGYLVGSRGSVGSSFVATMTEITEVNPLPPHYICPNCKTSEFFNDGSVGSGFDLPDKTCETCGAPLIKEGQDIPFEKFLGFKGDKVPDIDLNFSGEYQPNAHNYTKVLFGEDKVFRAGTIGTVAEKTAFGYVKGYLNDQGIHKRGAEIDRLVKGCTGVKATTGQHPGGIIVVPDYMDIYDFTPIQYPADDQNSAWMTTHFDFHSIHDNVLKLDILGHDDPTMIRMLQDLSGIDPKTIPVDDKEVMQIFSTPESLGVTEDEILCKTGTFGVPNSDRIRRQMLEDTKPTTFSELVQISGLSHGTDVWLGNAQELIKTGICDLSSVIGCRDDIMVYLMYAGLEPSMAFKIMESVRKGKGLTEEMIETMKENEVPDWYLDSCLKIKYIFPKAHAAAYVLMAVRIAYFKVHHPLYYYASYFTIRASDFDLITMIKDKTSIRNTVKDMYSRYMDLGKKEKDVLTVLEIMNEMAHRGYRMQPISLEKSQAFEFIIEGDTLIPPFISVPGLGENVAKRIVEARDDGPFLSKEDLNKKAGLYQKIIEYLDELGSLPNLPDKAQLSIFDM

Sequence of Escherichia coli DNA polymerase III core (Escherichia coli) (P10443 whole entry, chain 1 of 3): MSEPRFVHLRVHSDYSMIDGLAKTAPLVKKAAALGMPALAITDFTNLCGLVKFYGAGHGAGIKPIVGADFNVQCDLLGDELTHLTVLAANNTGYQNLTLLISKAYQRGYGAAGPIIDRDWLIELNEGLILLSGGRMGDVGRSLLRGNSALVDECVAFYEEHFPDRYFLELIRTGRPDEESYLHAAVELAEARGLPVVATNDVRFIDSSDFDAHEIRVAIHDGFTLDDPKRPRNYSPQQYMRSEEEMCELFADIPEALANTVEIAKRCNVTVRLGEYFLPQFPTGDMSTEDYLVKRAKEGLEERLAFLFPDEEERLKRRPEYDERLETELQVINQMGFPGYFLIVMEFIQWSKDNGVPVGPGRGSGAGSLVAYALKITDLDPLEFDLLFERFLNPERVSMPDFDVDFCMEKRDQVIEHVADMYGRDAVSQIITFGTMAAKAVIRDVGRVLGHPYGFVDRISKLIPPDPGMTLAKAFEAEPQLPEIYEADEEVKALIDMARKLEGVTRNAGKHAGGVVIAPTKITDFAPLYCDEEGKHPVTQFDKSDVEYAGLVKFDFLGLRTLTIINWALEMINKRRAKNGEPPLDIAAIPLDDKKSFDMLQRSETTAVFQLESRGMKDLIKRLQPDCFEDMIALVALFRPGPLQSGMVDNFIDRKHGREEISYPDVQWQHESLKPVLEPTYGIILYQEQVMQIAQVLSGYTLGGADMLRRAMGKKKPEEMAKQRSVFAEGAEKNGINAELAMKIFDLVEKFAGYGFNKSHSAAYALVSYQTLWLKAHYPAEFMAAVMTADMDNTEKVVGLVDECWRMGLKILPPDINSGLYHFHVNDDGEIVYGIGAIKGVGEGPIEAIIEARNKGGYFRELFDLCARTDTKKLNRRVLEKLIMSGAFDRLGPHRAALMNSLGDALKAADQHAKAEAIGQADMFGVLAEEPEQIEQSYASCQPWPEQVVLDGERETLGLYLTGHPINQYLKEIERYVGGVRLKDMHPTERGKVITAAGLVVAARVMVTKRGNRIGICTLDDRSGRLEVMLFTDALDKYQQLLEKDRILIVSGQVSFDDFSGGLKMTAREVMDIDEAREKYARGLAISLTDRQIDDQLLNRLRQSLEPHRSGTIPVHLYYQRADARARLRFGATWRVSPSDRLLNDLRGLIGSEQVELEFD
Sequence of Escherichia coli DNA polymerase III core (Escherichia coli) (P03007 whole entry, chain 2 of 3, further chain): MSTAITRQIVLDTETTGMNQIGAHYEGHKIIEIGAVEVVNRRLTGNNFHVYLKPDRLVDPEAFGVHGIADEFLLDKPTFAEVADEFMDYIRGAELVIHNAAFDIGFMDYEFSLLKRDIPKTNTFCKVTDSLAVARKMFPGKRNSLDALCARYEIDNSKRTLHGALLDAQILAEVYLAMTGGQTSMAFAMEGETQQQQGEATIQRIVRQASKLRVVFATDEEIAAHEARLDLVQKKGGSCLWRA
Sequence of Escherichia coli DNA polymerase III core (Escherichia coli) (P0ABS8 whole entry, chain 3 of 3, further chain): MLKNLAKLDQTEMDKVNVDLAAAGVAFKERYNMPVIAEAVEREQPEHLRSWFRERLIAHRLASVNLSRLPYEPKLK

“Escherichia coli beta subunit of DNA polymerase III holoenzyme (from UniProt P0A988 1-366)” gave a Total DNA synthesis on polydA-oligodT, lane 6 (E. coli Pol III core with E. coli beta; lane 5 without beta 0.97 pmol) [1] of 28.1 pmol and a stimulation of DNA synthesis by E. coli core on linear polydA-oligodT [1] of over 10 fold.

In the case of `[Cl-].[K+]` [KCl], the “Expected characteristics: inhibition by 0.15 M KCl” value (Pol II) is listed as “not inhibited (Not inhibited is defined as greater than 75% remaining activity)”, the “Expected characteristics: inhibition by 0.15 M KCl” value (Pol I) is listed as “not inhibited (Not inhibited is defined as greater than 75% remaining activity)” and the “Expected characteristics: inhibition by 0.15 M KCl” value (Pol III-L) is listed as “not inhibited (Not inhibited is defined as greater than 75% remaining activity)”.

B1: DnaE polymerase: S. pyogenes DnaE (α-small) polymerase encoded by dnaE, SEQ. ID. No. 20 (protein)
chain: MFAQLDTKTVYSFMDSLIDLNHYFERAKQFGYHTIGIMDKDNLYGAYHFIKGCQKNGLQPVLGLEIEILYQERQVLLNLIAQNTQGYHQLLKISTAKMSGKLHMDYFCQHLEGIAVIIPSKGWSDTLVVPFDYYMGVDQYTDLSHMDSKRQLIPLRTVRYFAQDDMETLHMLHAIRDNLSLAETPVVESDQELADCQQLTAFYQTHCPQALQNLEDLVSGIYYDFDTNLKLPHFNRDKSAKQELQDLTEAGLKEKGLWKEPYQSRLLHELVIISDMGFDDYFLIVWDLLRFGRSKGYYMGMGRGSAAGSLVAYALNITGIDPVQHDLLFERFLNKERYSMPDIDIDLPDIYRSEFLRYVRNRYGSDHSAQIVTFSTFGPKQAIRDVFKRFGVPEYELTNLTKKIGFKDSLATVYEKSISFRQVINSRTEFQKAFAIAKRIEGNPRQTSIHAAGIVMSDDALTNHIPLKSGDDMMITQYDAHAVEANGLLKMDFLGLRNLTFVQKMQEKVAKDYGCQIDITAIDLEDPQTLALFAKGDTKGIFQFEQNGAINLLKRIKPQRFEEIVATTSLNRPGASDYTTNFIKRREGQEKIDLIDPVIAPILEPTYGIMLYQEQVMQIAQVYAGFTLGKADLLRRAMSKKNLQEMQKMEEDFIASAKHLGRAEETARGLFKRMEKFAGYGFNRSHAFAYSALAFQLAYFKAHYPAVFYDIMMNYSSSDYITDALESDFQVAQVTINSIPYTDKIEASKIYMGLKNIKGLPRDFAYWIIEQRPFNSVEDFLTRTPEKYQKKVFLEPLIKIGLFDCFEPNRKKILDNLDGLLVFVNELGSLFSDSSFSWVDTKDYSVTEKYSLEQEIVGVGMSKHPLIDIAEKSTQTFTPISQLVKESEAVVLIQIDSIRIIRTKTSGQQMAFLSVNDTKKKLDVTLFPQEYAIYKDQLKEGEFYYLKGRIKERDHRLQMVCQQVQMAISQKYWLLVENHQFDSQISEILGAFPGTTPVVIHYQKNKETIALTKIQVTENLKEKLRPFVLKTVFR
With B1 the “Speed of primer extension” value [2] was “at least 60 nucleotides/s” and the “Time to complete M13mp18 primed ssDNA template” value ([2]; absence of β, presence of τδδ′) was at most 2 min.

B2: Staphylococcus aureus beta subunit (dnaN gene product) (protein)
chain: MMEFTIKRDYFITQLNDTLKAISPRTTLPILTGIKIDAKEHEVILTGSDSEISIEITIPKTVDGEDIVNISETGSVVLPGRFFVDIIKKLPGKDVKLSTNEQFQTLITSGHSEFNLSGLDPDQYPLLPQVSRDDAIQLSVKVLKNVIAQTNFAVSTSETRPVLTGVNWLIQENELICTATDSHRLAVRKLQLEDVSENKNVIIPGKALAELNKIMSDNEEDIDIFFASNQVLFKVGNVNFISRLLEGHYPDTTRLFPENYEIKLSIDNGEFYHAIDRASLLAREGGNNVIKLSTGDDVVELSSTSPEIGTVKEEVDANDVEGGSLKISFNSKYMMDALKAIDNDEVEVEFFGTMKPFILKPKGDDSVTQLILPIRTY
With B2 the Total DNA synthesis on polydA-oligodT, lane 4 (E. coli Pol III core with S. aureus beta; lane 3 without beta 5.1 pmol) [1] was 35.5 pmol, the stimulation of DNA synthesis by E. coli core on linear polydA-oligodT [1] was 5 fold and the Total DNA synthesis on polydA-oligodT, lane 2 (Pol III-L with S. aureus beta; lane 1 without beta 4.4 pmol) [3] was 30.3 pmol. The stimulation of DNA synthesis by Pol III-L on linear polydA-oligodT [3] was 5 fold and 6 fold.
